Measurements published in article PMC4865801.

B1: β4-peptide (peptide)
peptide: KKLITFILKKTREK
share of cells with resurgent currents (whole-cell patch clamp, 100 µM β4-peptide in the pipette, 50 nM ATX-II in the bath) (hNav1.7 WT (human)): 42% | share of cells with resurgent currents (whole-cell patch clamp, 100 µM β4-peptide in the pipette, 50 nM ATX-II in the bath) (hNav1.7/V948C (human)): 55% | cells with resurgent currents (whole-cell patch clamp, 100 µM β4-peptide in the pipette, 50 nM ATX-II in the bath) (out of 15 cells) (hNav1.7/ΔL955 (human)): 1
